Reference: the domain aggregation screens of Martell et al. (2025)

assay: soluble fraction after stress (log2 fold change); higher = more stays soluble; pooled small domains, quantitative proteomics; details: stress: 50 degC
Method in brief: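 Pooled custom libraries of small protein domains were measured in a high-throughput format, with quantitative proteomics as the read-out. Each library was stressed at 50°C. Aggregation propensity is given as the base-two logarithm of the fold change in how much of each protein stays soluble after the stress. Higher values mean a larger share of the protein remains in solution.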

Row | Sequence | soluble fraction (log2)
1 | HMDIESREAWVDASGMGVRLDRWLTQLAPEFSRNHLQSLIERGAVRVDGQPALVASRKLRIGQQVAVSLIP | -0.868
2 | HMDIEVEVPNLVGMSLDEAKSIIQSMGLVVGLTIEDPSAKVSDNSVTKQKPTYQTGVKLRSGDMIDIWYAG | -0.102
3 | HMDIFSSFVAIKNANVRELPTAKSAQVATLSKGSEVTALGKVKGKNWYLVARDGKELGYVFGSLIAEAET | -1.29
4 | HMDIINLADNIARLRRRRQITQEELADYLGVTKAAVSKWENRQTMPDILLLPRLAGLFEVTIDELVGY | -1.42
5 | HMDIKDRSGVTIDESNEAQQESIIRESWAEQKISGNVDNYIAYLKANGMLLETAKIELAALQEKDASLRE | 0.0421
6 | HMDILEVLIKKDLAMELLEQLTERQRTVVYLRYFYQLNQKEIADYLGISQQRVSEILSRAKAVLTAYTKK | -1.43
7 | HMDILPEGNYKVNYDVIDEVGNIVANKNDIVVTEKSIKPLNTILGIDLYEVIHSQTGKYFTINGDNLTN | -0.00162
8 | HMDINLGIGPLVKKYRTIKGYSIRELARNINVTASMLSQIERDIVNPSINTLKAISVELGVPMYKFFM | -2.33
9 | HMDINLSENLVRLRHAKKLTQEQLADFLGVTKASVSKWETRQSLPDILLLPRLAAFYGVTVDELIGYEP | -0.253
10 | HMDISKTLGKNPLLIIDNIEYRGKTLDEITAMTGVKRFENIDIYGSEEAMKTYGEKAKDGVIIAYTT | 0.0561
11 | HMDITGIGIKKRIKAIIDSEDKKNPLSDTQIVEILKNEGLEISRRTVAKYRSDLQIPSSSKRKK | 0.403
12 | HMDIVEIYVGEEDGERIDSYLAQELNNVSRSYVQGLIKNQLITVNGNHVKPKHIVKEGEHIIVNIPPPKV | 0.24
13 | HMDIVENSMPNVVGLELNRAKELMTQLGFTNVRYEPTESSRPENEVVYQSVDKDETLDVSSEIIIQYSSGV | -0.0131
14 | HMDKEKLQEKLLQIFEAEPQKKFQVQDLVKVLDMEGAGQFKFVVQALADLEHNKQIKLSEDDTFSLIVKE | 0.0616
15 | HMDKENVLQLQKDLLRLSVNALEKRYYQFSDILLLKYILPLVPKEISIDDQSRLRSLLSGIN | -0.238
16 | HMDKEPTHLHTFRLIKEGKSSEEIAEIRNITLGTVNTHLAKLIAVGELTIEQVISKHRLDYVMEAIKNSK | -0.16
17 | HMDKKIVGVNAGKVWQALNEVTEISIVELAEKLNLSVESTALAAGWLAREDQISIERKNGTIELQRKN | -0.263
18 | HMDKNNLLIIYRTNSEGTPYAFSVTPSAKSLDALHKDAKEMLPFLEKSMNNFFSIQIWERAEYLKY | -0.643
19 | HMDKPGMRLNQFIAHSGISSRREADNLIKAGLVQVNGKIIVEMGFRVMPTDIVKFNNETIAS | -1.46
20 | HMDKPIVFLEDTKAHKSSDLQSPVYMTVPKGTIAFVIAEKGDWSQVYAGRVLDRNLASQWVRRGFS | 0.227
21 | HMDKSLDFASIKSVEIATGRKFGWHALKKWSKSNSSEIKTIPDPNFGEVKTYHKDAWLAVYNINLSPILD | -0.404
22 | HMDKSPMIGTAEYEGVLYWRQTKDNGATWEWITDKNGDKMPVSGPAPAVGIDKDGYWTVNGESTGVLAKD | 0.168
23 | HMDKVSYALGLGIGRQLTDMGAKDLNIDDFAQAIKDVLAGGEVKLSDAEAQTIVRNFFDEQEKKQRA | -0.0034

Row | Sequence | soluble fraction (log2)
24 | HMDLANLQNGQTLPLQRDVEVISIPFGKTISLSEDSVVSIMQAKGSSVSVAYEGRLYLIEGSNLDALGLEP | -0.736
25 | HMDLANRSLDRGITILESLARNGASSLADLHRDSGIAKSTIRRLLGTLIQHRLVRRSVADGLYRVTIPLPA | -1.18
26 | HMDLDIQNYNLDEILELFKVSYDFDETELKKAHKMYLMTHPDKSNLNPNIFLFFVQAYDILRKLYEFR | -0.468
27 | HMDLDIRDDIYRANIPNDYKLQQMQNNIDYDKVLTGYYNNRPEANVIANRTLQLANDVYNRD | -0.0187
28 | HMDLDLNIDNYNFDDLLNLFGLKMKFSEDDLKKAKRSVLMTHPDKSGLDKQYFMFFTKAYKMLSQIYYFR | 0.42
29 | HMDLDPNKPAIPIAYPRVLLNIMAEKGFSRTEVLAGSGLADSVFDKPDHRITPAQFLFILMNSFYLS | -0.601
30 | HMDLFLVYQFIRRLATPFTEWKAHELGIIDDKGVQLKKRRDFTTREEKDAYGIFDIMITKLKRLIEKV | -0.255
31 | HMDLFSAVVHHIVGQQISTKAQATIWKRMRDEFGVVDAAAVLGAGVEKLQSFGMTFRKAEYITDFARKIE | -2.51
32 | HMDLGLTDDQRLVYGLLSPTVPRSSGELLGMVDFGRSKLSRILKELIELGQVFTVGVGRGLKYKRG | -0.307
33 | HMDLGTHMRLIVPTGMRVDHIVYESNGKNISVDHDRSISVRWNGEVVSIDVSPLPSRPDFDVLIYMSPK | -0.0114
34 | HMDLLAESLTRREAEVAALAARGLTNRAIAELFGLSVRTAETHLHRAMGKLGANRREDLLLHADRLDPG | -0.629
35 | HMDLLESLSAREREVVHLASRGLVNKLIARELGITERTVKAHLSSAFEKLHIKDRVHLALLVNGI | -1.45
36 | HMDLLKANNLSQINVDKLTDEEILKYSQQLKQSGLTESQAEQIAIARGMPATEIAKLKQRLISLTNMQ | 0.133
37 | HMDLLVWRVADEDAGERIDKLVVDSLDDVSRTAVQQWIKDGLVTVNGKTVKPNYKAAAGDEVAVSVPEPE | 0.149
38 | HMDLMKKTLTKEMLLIDFMKQQFPDSSTNKLRKMLSSGRVKINNLITHKAKSQLKLGDIFELANKPHD | -0.826
39 | HMDLPGIVTETDRQRADLAARIGAAKVEAVLAGGARSVEADEDFDADTRRELHQFLTRMARRAFLEER | -0.0484
40 | HMDLPSSETLKVKLNLAKAYVTIEDFGAARRALDEVLSVSSLVDPDLTIQAKSLLAEIDQRS | -0.0514
41 | HMDLQAAWLQTVRHLLAHTEDVGDRFAEEARRIHYGEEPHRGIRGQATPEERLALREEGIETMSIPV | -0.631
42 | HMDLQHQLTPRLKRLRLSGILETLEVRNQQAIAEKWSYVEFLTRLAEDEVERRDHKQLTLRLR | -0.499
43 | HMDLSYPFTTVTTDNVNMRRSASSSSVVLERIDKGDSITVLGTSGNYYKVSYNDRTGYVLKQYVDVSAATT | -0.173
44 | HMDLTPEEQMDLYRLLDSLPTEERTYLILHYFEERSFPEMAEILSMPEAKLKSRFYRILHRLRAHL | -2.56
45 | HMDLTSDANLKEAKDQILNLLNDGKRHHVTEINKILLPPVQVQEALRFLIHEETVRVDASFLF | -0.167
46 | HMDLVESYDLKIIYTSELINLLIDSSRLEEALNLFKDLKDEIDDVENLGFSAKNNLDYMESKLLHLG | -1.83

Row | Sequence | soluble fraction (log2)
47 | HMDLYIILGLERSATLSDVRRAYRRLARKYHPGINPGDRNSASVFTRVSEAYQVLSDPEQRRRYDSR | -2.81
48 | HMDMDRRALLLALINDRYHASVAEFARAINKAPAQVHQWLSGNRALGNAGARDIEIRLNLAQGYFDH | -1.91
49 | HMDMQMPIMNGLEFLERINLTLDDNFSIIVLTGKIEDKSIEKSFELGINAYLRKPFNIYALLGIVRQN | -0.0848
50 | HMDMSDFEVVRDMYLTGKVWNAGDIVEAKGITGEVVRKGTNYLSFVDKNGKVHKAWLHEIEL | -0.188
51 | HMDNAILQELYDYYKEDPSLSQSELIISMLTRIQEAVGYVSKDVQEEVARLAGVNRGYVAAIIKNLPHL | -0.747
52 | HMDNEYDKVYQAALSKLEGYPRSSITTAVIKDVVAQTIKYFEIKNFGYEDTIINQLQSAFTVKSSS | -0.0856
53 | HMDNLSESQIKAYSSILSRTHEISDLAENKDYLAFSLWIANILRDPQSVREETAKRVFSALHTNTDFK | -0.945
54 | HMDNMFMPPVNGWDVRQALQKLQNEMGLQVKMEYSPSETITEGYVISYTPIDGMKVEKGDEVTLVISTGPE | 0.225
55 | HMDNMTEMQKAVTALIEKSGGSIDNLSVIYDHLKKKYPSFDLKDYGYSRFSSFLRSMENIMVRGNAVTLRS | 0.0337
56 | HMDNPPDRAEIEQMLKDAGLTPEADAMAALSDLARTLDPGDFRQTLEKITLYKLGDSTPIGLDDIAAGAP | -0.0256
57 | HMDNQSIVRINDGDGAWRQRLGEHFGHLPRDRKRGEIVLQVDAADWRWLQTQGYAPRFDAALSAQLQTTL | -0.404
58 | HMDNVLGKSGKVIFVNEEINSYGRAFIPGHGEWNIRTKSDQNIHINDGIKVIERDGITLVVEL | -1.14
59 | HMDNVQLRNFAIKATEASIIYLDQEQRNFFWYNNNKKLMTVPFDENPYSAFAAYLKTDEGSEVYKAIEKKF | -1.68
60 | HMDNWAALLSEREVQVSRLVANGASNKEIADHLAITERTVKAHLTAVFEKLGVRDRLQLSLRVNGL | -2.01
61 | HMDPALSPAEQKIWDLLAAGETHIDDLVRASGLPVATVNSALVMMEMKEVISQVAAKTYRRNRRN | -0.0324
62 | HMDPEARRRAILNAAIDVIVEKGAAALTHRAVAARAGVSLGSTTKYFSSIEDLRENAMDALVREMD | -0.273
63 | HMDPEEQIQSREIWEAVERALDGMQEKGRRVVIALLEGQTQLEVSRAAGISQPLISYYLKSFRTKVRTELG | -0.48
64 | HMDPEIADAVNTIKKYLESHYSEVITRKKIEELVHLNQDHINREFKKQTGYTLMEYVQHYRILMAKKMLRV | -0.243
65 | HMDPEQLKIAINTKMPFGKYSGRPLLLLPEPYLVWFKQQGFPDSKLGSQLAMMYEVKLNGLEQMLMPLL | -0.673
66 | HMDPERLDQLQNPDPAVRREAIIALGRSKDLAALPELAKVYKNDPVPELRELARQAGRYIQQENRP | 0.126
67 | HMDPFVILGISKDSSQSEILEAYKTKRAYYQEHVFDEGDQGAQAARMLGQLDDAYQQAMELSHE | -0.062
68 | HMDPKISWESDEKLSANIGHYENSIKPLMGNKYLIELSQLKDKIESHPWVARATIKRIFWNKIHIQLESHD | 0.00717
